According to US20030207435A1:

Key:
serpins of rabbit plasma = experiment: cell-based or functional assay
[1] = target: serpins of normal human plasma; experiment: cell-based or functional assay

Inactivation in Plasma (t1/2 Relative to wt), Rabbit (x (relative to wt)) (serpins of rabbit plasma)	Inactivation in Plasma (t1/2 Relative to wt), Human (x (relative to wt)) [1]	Binder
1	1	wild-type human activated protein C, P04070 43-197; P04070 212-461 (enzyme, here or on the partner: Asn-linked carbohydrate at three sites; vitamin K-dependent gamma-carboxylation of nine glutamic acid residues within the amino-terminal 45 residues (gla-domain); one erythro-beta-hydroxy-Asp; Asn-linked carbohydrate) light: ANSFLEELRHSSLERECIEEICDFEEAKEIFQNVDDTLAFWSKHVDGDQCLVLPLEHPCASLCCGHGTCIDGIGSFSCDCRSGWEGRFCQREVSFLNCSLDNGGCTHYCLEEVGWRRCSCAPGYKLGDDLLQCHPAVKFPCGRPWKRMEKKRSHL heavy: LIDGKMTRRGDSPWQVVLLDSKKKLACGAVLIHPSWVLTAAHCMDESKKLLVRLGEYDLRRWEKWELDLDIKEVFVHPNYSKSTTDNDIALLHLAQPATLSQTIVPICLPDSGLAERELNQAGQETLVTGWGYHSSREKEAKRNRTFVLNFIKIPVVPHNECSEVMSNMVSENMLCAGILGDRQDACEGDSGGPMVASFHGTWFLVGLVSWGEGCGLLHNYGVYTKVSRYLDWIHGHIRDKEAPQKSWAP
> 20	13	activated human protein C derivative S11G:Q32E:N33D:L194S:T254S, P04070 43-197; P04070 212-461 (enzyme, here or on the partner: Asn-linked oligosaccharides; gamma-carboxy-glutamates in the gla-domain; one erythro-beta-hydroxy-Asp; Asn-linked oligosaccharide) light: ANSFLEELRHGSLERECIEEICDFEEAKEIFEDVDDTLAFWSKHVDGDQCLVLPLEHPCASLCCGHGTCIDGIGSFSCDCRSGWEGRFCQREVSFLNCSLDNGGCTHYCLEEVGWRRCSCAPGYKLGDDLLQCHPAVKFPCGRPWKRMEKKRSHL heavy: LIDGKMTRRGDSPWQVVLLDSKKKSACGAVLIHPSWVLTAAHCMDESKKLLVRLGEYDLRRWEKWELDLDIKEVFVHPNYSKSTSDNDIALLHLAQPATLSQTIVPICLPDSGLAERELNQAGQETLVTGWGYHSSREKEAKRNRTFVLNFIKIPVVPHNECSEVMSNMVSENMLCAGILGDRQDACEGDSGGPMVASFHGTWFLVGLVSWGEGCGLLHNYGVYTKVSRYLDWIHGHIRDKEAPQKSWAP

Further lines, the binder ahead of its results:

Binder	Inactivation in Plasma (t1/2 Relative to wt), Rabbit (x (relative to wt)) (serpins of rabbit plasma)	Inactivation in Plasma (t1/2 Relative to wt), Human (x (relative to wt)) [1]
activated human protein C derivative H10Q:S11G:Q32E:N33D:L194S:T254S, P04070 43-197; P04070 212-461 (enzyme, here or on the partner: Asn-linked oligosaccharides; gamma-carboxy-glutamates in the gla-domain; one erythro-beta-hydroxy-Asp; Asn-linked oligosaccharide) light: ANSFLEELRQGSLERECIEEICDFEEAKEIFEDVDDTLAFWSKHVDGDQCLVLPLEHPCASLCCGHGTCIDGIGSFSCDCRSGWEGRFCQREVSFLNCSLDNGGCTHYCLEEVGWRRCSCAPGYKLGDDLLQCHPAVKFPCGRPWKRMEKKRSHL heavy: LIDGKMTRRGDSPWQVVLLDSKKKSACGAVLIHPSWVLTAAHCMDESKKLLVRLGEYDLRRWEKWELDLDIKEVFVHPNYSKSTSDNDIALLHLAQPATLSQTIVPICLPDSGLAERELNQAGQETLVTGWGYHSSREKEAKRNRTFVLNFIKIPVVPHNECSEVMSNMVSENMLCAGILGDRQDACEGDSGGPMVASFHGTWFLVGLVSWGEGCGLLHNYGVYTKVSRYLDWIHGHIRDKEAPQKSWAP	> 20	8.5
activated human protein C derivative S11G:Q32E:N33D:L194S, P04070 43-197; P04070 212-461 (enzyme, here or on the partner: Asn-linked oligosaccharides; gamma-carboxy-glutamates in the gla-domain; one erythro-beta-hydroxy-Asp; Asn-linked oligosaccharide) light: ANSFLEELRHGSLERECIEEICDFEEAKEIFEDVDDTLAFWSKHVDGDQCLVLPLEHPCASLCCGHGTCIDGIGSFSCDCRSGWEGRFCQREVSFLNCSLDNGGCTHYCLEEVGWRRCSCAPGYKLGDDLLQCHPAVKFPCGRPWKRMEKKRSHL heavy: LIDGKMTRRGDSPWQVVLLDSKKKSACGAVLIHPSWVLTAAHCMDESKKLLVRLGEYDLRRWEKWELDLDIKEVFVHPNYSKSTTDNDIALLHLAQPATLSQTIVPICLPDSGLAERELNQAGQETLVTGWGYHSSREKEAKRNRTFVLNFIKIPVVPHNECSEVMSNMVSENMLCAGILGDRQDACEGDSGGPMVASFHGTWFLVGLVSWGEGCGLLHNYGVYTKVSRYLDWIHGHIRDKEAPQKSWAP	8.5	5.8
activated human protein C derivative H10Q:S11G:Q32E:N33D:L194S, P04070 43-197; P04070 212-461 (enzyme, here or on the partner: Asn-linked oligosaccharides; gamma-carboxy-glutamates in the gla-domain; one erythro-beta-hydroxy-Asp; Asn-linked oligosaccharide) light: ANSFLEELRQGSLERECIEEICDFEEAKEIFEDVDDTLAFWSKHVDGDQCLVLPLEHPCASLCCGHGTCIDGIGSFSCDCRSGWEGRFCQREVSFLNCSLDNGGCTHYCLEEVGWRRCSCAPGYKLGDDLLQCHPAVKFPCGRPWKRMEKKRSHL heavy: LIDGKMTRRGDSPWQVVLLDSKKKSACGAVLIHPSWVLTAAHCMDESKKLLVRLGEYDLRRWEKWELDLDIKEVFVHPNYSKSTTDNDIALLHLAQPATLSQTIVPICLPDSGLAERELNQAGQETLVTGWGYHSSREKEAKRNRTFVLNFIKIPVVPHNECSEVMSNMVSENMLCAGILGDRQDACEGDSGGPMVASFHGTWFLVGLVSWGEGCGLLHNYGVYTKVSRYLDWIHGHIRDKEAPQKSWAP	8.5	5.9
